The supplement of paper PMC12042874
± gives the uncertainty stated by the source.

test: amyloid nucleation score (Sup35N fusion, yeast selection) (log enrichment); library NNK1; higher = more nucleation; inactive = no reads after selection
In short: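 The nucleation score is a DiMSum log enrichment of output over input reads, centred on the mode score of non-aggregating sequences. Sequences under 100 input reads were excluded, and reads came from Illumina sequencing of plasmid inserts. Psi-negative yeast expressing Sup35N fused to peptides of 20 random codons were induced with 100 μM copper sulfate for 24 hours and grown 7 days at 30°C on medium lacking adenine and uracil. Random libraries had three technical output replicates.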

Substance	amyloid nucleation score
RNNCEMCLGFLS	0.827 ± 0.37
RYYCFPTQLIHLTTT	-0.755 ± 0.55
EGGRFKHRMNSCHYNSFGLH	-0.255 ± 0.76
VHRDFGSENYSTLEVCNSLT	1.16 ± 0.84
FRDCLLVRYLCNVLTGDCTH	1.94 ± 0.52
QNFNFSWVYTFYTRICTLYF	5.872 ± 0.047
PGYSVPFSCGDQVPQQLPIR	-0.538 ± 2.1
LYYFCLAINFSLGEGTAFVQ	-0.133 ± 0.84
KAHRWDGRIFN	-1.27 ± 0.55
QNDLERWAEGQASKMLG	0.433 ± 0.4
WSRMGLAILRFFKYLS	0.093 ± 0.36
WQSCWIWTKCRTVDVRRKKD	-0.598 ± 0.43
VMAMSMLYSLMRNGKKLHFK	1.67 ± 0.6
NTLKNCCLYIAVRCNAP	-0.974 ± 1.2
CSYPYGQSEDCGSRSGRGYA	0.877 ± 1
LLLDLILY	-0.505 ± 0.72
IMYCLFGHLFLLRIGGFIMG	0.101 ± 0.68
YSVQIMSKNITWVKVCPASK	5.19 ± 0.071
TVMANKY	-0.16 ± 0.32
YILKGNYLYRRVQLDLRTRR	-0.244 ± 0.28
RYYLMVFFKWIFEIWKMVLK	-0.646 ± 0.28
NPCWTVYLEFL	0.186 ± 0.27

Substance	amyloid nucleation score
EAPYISFVLIG	inactive
THKFLRTRTYFMSVRSVNYW	1.19 ± 0.41
RCCIIDLFS	4.87 ± 0.066
NDFYVLNASFSSRHSYAIRH	1.1 ± 0.3
SRTVTLFHHASNKSFHSSVS	-0.074 ± 0.9
FGLADITWKLPPQGSTWRLT	-0.108 ± 0.95
MMSEYSYESFHMLII	-2.05 ± 1.4
YVTDVDF	inactive
AGHLGWARFVYTLLSEDTVH	0.031 ± 0.79
LMSLRDQRVLALN	-0.533 ± 0.44
WSKCNVRMCWH	-0.122 ± 0.64
YVVIAEPGYSRDMISLMERC	-1.16 ± 1.3
GGVISESTGYLRLIHRRWDG	-0.751 ± 1.7
KSRWHMLLNS	0.051 ± 0.72
SFIMSNS	0.075 ± 0.41
VPYVRMNVR	2.24 ± 0.14
WCVYNFSCALISPY	6.018 ± 0.054
RNNIFFF	7.399 ± 0.059
LVFVFWLKVEPPMLSTCMSK	-1.16 ± 2.7
MRFSPVPCLNF	0.353 ± 0.43
LSNLDMVM	inactive
IKLGVFRIKSSFN	0.708 ± 0.34

Substance	amyloid nucleation score
FEYVIPRVTKIVRSTDRRGS	-0.548 ± 1.7
HNRMMMRADVTAVDTRYFTS	-1.57 ± 1.3
ISCCVKLRFGLCKSWNFMNQ	-1.19 ± 1.4
FVCWRYRCFLWELEEDGLVN	0.627 ± 0.71
SAPMVFESDPREFAAGMSRL	-0.53 ± 0.39
YIDEIY	-0.759 ± 0.35
CFLVGSWTPI	0.215 ± 0.76
HGIFEGRITVILKGY	4.05 ± 0.15
DRRRNCYFIRLWQGLGYIS	inactive
TGVRHATTC	1.13 ± 0.19
LFVMSWYNYAVKFVAINTIT	-0.031 ± 0.24
SILTSNMGQSHVSMDVLVVW	inactive
FKVTFNRDVPNESSTALCSV	-1.01 ± 1.7
FRSVVWRLHTFY	-0.075 ± 0.5
EDGPWACTCYYCGQGRRTWV	0.16 ± 0.9
LRMKANYVTSAFNRCVLLLG	0.425 ± 0.41
IESWCLMSVNSDGARWSSRF	-0.872 ± 0.83
PNLPGSKDNLTDRF	0.488 ± 1.2
YHILGCKIVNVIDTALGPWL	5.8 ± 0.06
RGSEPAIGLMMVLP	0.458 ± 0.41
CVMNLYGGMPHAGRWTGF	4.33 ± 0.11
CIWSSNLFSRSSTSDWRLDT	-0.109 ± 0.29

Substance	amyloid nucleation score
VNAPST	0.413 ± 1.1
WASTLEDVMRQEKVHLWMIG	-0.242 ± 0.3
FNFCHE	-0.392 ± 0.6
VCMRTAGCFSDTYGVHGFKI	1.21 ± 0.24
ENVAITMVLPSAKMGSYMDG	0.453 ± 1.2
LFSRFCTTVCKSTFRFDTR	1.65 ± 0.76
DETQKPRVLCMLLLSKSTEN	0.558 ± 0.34
HRTFA	0.465 ± 0.35
RCSGYRFRFTVRRTSLCFVK	-0.447 ± 1.2
VRACSCMDCDTVYRNVLSMG	-1.79 ± 2.4
YFDRNFARYFCYRVTTT	1.48 ± 0.2
VGVYGRYIV	-0.135 ± 0.28
RIFLLVTHVACAMPLFHKTR	0.83 ± 0.75
FSRFLYEYGCGELVATFLPW	0.517 ± 0.24
FLPWVLFFSQ	0.816 ± 0.62
WAILLSWGYKGSRAWWFFSI	-0.721 ± 0.49
YNGGLRVMICLPECLLFSLI	-0.246 ± 0.49
FIQNKVLVFQSNSTNDLLFP	6.071 ± 0.058
GNWGNGSGTCLCTSSFYCRL	2.78 ± 0.14
YVWDFRKLLYPAGWMSESVR	-0.346 ± 1
